Laboratory results: the nanobody polyreactivity screen of Harvey et al. (2022)

test: yeast display, Sf9 membrane polyspecificity reagent, FACS + sequencing; frameworks hold sequencing errors
Procedure, shortened: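 Galactose-induced (36–48 hours) yeast carrying a synthetic nanobody display library were exposed to 10% biotinylated, detergent-solubilized Sf9 membrane reagent at 4 °C for 1 hour. FACS followed streptavidin microbead enrichment, using low and high (top ~1%) gates for expression (anti-HA) and reagent binding (streptavidin). Colony PCR, MiSeq 2 × 250 sequencing and CDR-length filtering followed. Labels for polyreactivity reflect the gate of origin.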

Row | Sequence | polyreactivity (PSR sort gate)
1 | QVQLVESGGGLVQAGGSLRLSCAASGFTIYYYAMAWYRQAPGKERELVAAISYSGGSTYYADSVKGRFTISRDNAKNTVYLQMNSLKPEDTAVYYCAVDWYGSYGYGGSQKSDYWGLGTQVTVSS | high polyreactivity
2 | QVQLVESGGGLVQAGGSLRLSCAASGFTIYYYAMGWYRQAPGKERELVASISWRGGSTYYADSVKGRFTISRDNAKNTDYIQINSLKAEDTAVYYCAAQKRGSPGNRRDYWGQGTQVTVSS | high polyreactivity
3 | QVQLVESGGGLVQAGGSLRLSCAASGFTIYYYAMGWYRQAPGKVRELVASITSGGSTYYADSVKGRFTISRDNAMNTVYLQMNSLKPEDTAVYYCAQTRFHSKEGDYWGQGTQVTVSS | low polyreactivity
4 | QVQLVESGGGLVQAGGSLRLSCAASGFTLAFYGMGWYRQAPGKERELVAAISWSGDSTYYADSVKGRFTISRDNAKNTVYLQMNSLKPEDTAVYYCAKPKRRFYDRPSDYWGQGTQVTVSS | high polyreactivity
5 | QVQLVESGGGLVQAGGSLRLSCAASGFTLALNAMGWYRQAPGKERELVAVINSGGSTNYADSVKGRFTISRDNAKNTVYLQMNSLKPEDTAVYYYWGQGTQVTESS | low polyreactivity
6 | QVQLVESGGGLVQAGGSLRLSCAASGFTLAWYAMGWYRQAPGKERELVATIRSGGNTYYADSVKGRFTISRDNAKNTVYLQMNSLKPEDTAVYYCAKTHTYPRYGRGYDYWGQGTQVTVSS | high polyreactivity
7 | QVQLVESGGGLVQAGGSLRLSCAASGFTLDWYVMGWYRQAPGKDRELVAAISSSGGRTYYADSVKGRFTISRDNAKNTVYLQMNSLKPEDTAVYYCAARNKYGGYPYGYDYWGQGTQVTVSS | high polyreactivity
8 | QVQLVESGGGLVQAGGSLRLSCAASGFTLDWYVMGWYRQAPGKERELVAAISSSGGRTYYADSVKGRFTISRDNAKNTVSLQLNSLKPEDTAVYYCAARNKYGGYPYGYDYWGQGTQVTVSS | high polyreactivity
9 | QVQLVESGGGLVQAGGSLRLSCAASGFTLDWYVMGWYRQAPGKERELVAAISSSGGRTYYADSVKGRFTISRDNAKNTVYLQMNSLKPEDPAVYYCAARNKYGGYPYGYDYWGQGTQVTVSS | high polyreactivity
10 | QVQLVESGGGLVQAGGSLRLSCAASGFTLEFYAMGWYRQAPGKERELVAAISKSGGSTYYADSVKGRFTISRDNAKNTVYLQMNSLKPEDTAVYYCAKVNSYGPVPDRYDYWGQGTQVTVSS | high polyreactivity
11 | QVQLVESGGGLVQAGGSLRLSCAASGFTLEFYAMGWYRQAPGKERELVASISSGGRTNYADSVKGRFTISRDNAKNTVFLQMNSLKPEDTAVYYCAAEYRSWGRYRYRFNYWGQGTQVTVSS | high polyreactivity
12 | QVQLVESGGGLVQAGGSLRLSCAASGFTLENYAMGWYRQAPGKARELVAAINCRGSRTYYADSVKGRFTISRDNAMNTVYLQMNSLKPEDTAVYYCARDKRTNSGFYYWGQGTQVTVSS | high polyreactivity
13 | QVQLVESGGGLVQAGGSLRLSCAASGFTLGFNARGWYRQAPGKERELVAAITIGGTTYYADSVKGRFTISRDNAKNTVYLQMNSLKPEDTAVYYCAAARFLWFYVYTTRVQRYGYWGQGTQVTVSS | low polyreactivity
14 | QVQLVESGGGLVQAGGSLRLSCAASGFTLGFYAMAWYRPAPGKERELVAAINWRGGSTYYADSVKGRFTISRYNAKNTVYLQMNSLKPADTAVYYSNRVYRPSLYDYWGQGTQVSVSS | high polyreactivity
15 | QVQLVESGGGLVQAGGSLRLSCAASGFTLGLYAMGWYRQAPGKERELVAAITAGGDSTDYADSVKGRFTISRDNAKNTVYLQMNSLKPEDTAVYYCAAPSYWLYYYILDSSDYWGQGTQVTVSS | high polyreactivity
16 | QVQLVESGGGLVQAGGSLRLSCAASGFTLGSKVMGWYRQAHGKERELVAGISQSGGRTFYADSVKGRFTISRDNAKNTVYLQMNSLKPEDTAVYYCAAGYYPYWGQGTLVTVSS | low polyreactivity
17 | QVQLVESGGGLVQAGGSLRLSCAASGFTLGYNAMGWYRQAPGTERELVAAITRSGGSTYYADSVKGRFTISRDNAKNTVYLQMNSLKPEDTAVYYCNARSVYGSKQEEYWGQGTQVTVSS | high polyreactivity
18 | QVQLVESGGGLVQAGGSLRLSCAASGFTLHVYAMGWYRQAPGKERELVAAISTGGNTNYADSVKGRFTISRDNAKNTVYLQMNSLKAEDTAVYYCNARYTSRRSRRPYYEWGQGTQVTVSS | high polyreactivity
19 | QVQLVESGGGLVQAGGSLRLSCAASGFTLIDYAMGWYRQAPGKERELVAAISGSGGRTYYADSVKGRFTISRDNAKNTVYLQMNSLKPEDTAVYYCAAGRRHVYKRRRYDYWGQGTQVTVSS | high polyreactivity
20 | QVQLVESGGGLVQAGGSLRLSCAASGFTLLTYVMGWYRQAPGKERELVAAISKSGSRTYYADSVKGRFTISRDNAKNTVYVQMNSLKPEDTPVYYCAADTSAYRYDYWGQGTQVTVSS | high polyreactivity
21 | QVQLVESGGGLVQAGGSLRLSCAASGFTLPLYAMGWYRQAPGKERELVAAISSGGGRTYYADSVKGRFTISRDNAKNTVYLQMNSLKPEDTAVYYCNVDRWWLGWYKFNYWGQGTQVTVSS | high polyreactivity

Row | Sequence | polyreactivity (PSR sort gate)
22 | QVQLVESGGGLVQAGGSLRLSCAASGFTLPVYAMGWYRQAPGKERELVARITWSAGRTYYADSVKGRFTISRDNAKNTVYLQMNSLKPEDTAVYYCAAGPVSQQHSPGPHDYWGQGTQVTVSS | high polyreactivity
23 | QVQLVESGGGLVQAGGSLRLSCAASGFTLQGYAMGWYRQAPGKERELVAAIRWIGTSTYYADSVKGRFTISRDNAKNTVYLQMNSLKPEDTAVYYCAAVVRRVRPEGSYNRWGHDYWGQGTQVTVSS | high polyreactivity
24 | QVQLVESGGGLVQAGGSLRLSCAASGFTLQSNAMGWFRQATGKERELVAAISFRGGSTYYADSVKGRFTISRDNAKNTVYLQMNSLKPEDTAVYYCAADFYFHSAYNYGYWGQGTQVTVSS | low polyreactivity
25 | QVQLVESGGGLVQAGGSLRLSCAASGFTLRKYVMGWYRQAPGKERELVAAITSSASSTYYADTVKGRFTISRDNAKNTVYLQMNSMKPEDTAVYYCAARGRPYRGSYYWGQGTQVTVSS | high polyreactivity
26 | QVQLVESGGGLVQAGGSLRLSCAASGFTLRSYTMGWYRQAPGKERELVAAITSRGTSTYYADSVKGRFTISRDNAKNTVYLQMNSLKPEDTAVYYCADPIYNGYASWQVYYWGQGTQVTVSS | high polyreactivity
27 | QVQLVESGGGLVQAGGSLRLSCAASGFTLRYYAMGWYRQAPGKERELVATINRSGASTYYADSVKGRFTISRDNAKNTVYLQMNRLKPEDTAVYYCNTATSRAYRYDYWGQGTQVTVSS | high polyreactivity
28 | QVQLVESGGGLVQAGGSLRLSCAASGFTLSRYAMGWYRQAPGKERELVAAISSSGDSTYYADSVKGRFTISRDNAKNTVYLQMNSLKPEDTAVYYCNVYTYHRYDYWGQGTQVTVSS | high polyreactivity
29 | QVQLVESGGGLVQAGGSLRLSCAASGFTLSYYAMGWYRQAPGKERELVASISAIGGITYYADSVKGRFTISRDNAKNTVYLQMNSLKPEDTAVYYCARQGRRYRRFDSWGQGTKVTVSS | high polyreactivity
30 | QVQLVESGGGLVQAGGSLRLSCAASGFTLWLNAMGWYRQAPGKERELVAAITTSDDGTYYADSVKGRFTISRDNAKNSVYLQMNSLKPEDTAVYYCAADYYSVLYDYWGQGTQVTVSS | low polyreactivity
31 | QVQLVESGGGLVQAGGSLRLSCAASGFTLYFYVMGWYRQAPGKERELVAAITSGGSTYYADSVKGRFTISRDNAKNTVYLQMNSLKPEDTAVYYCAARRSPSRRYLGNYWGQGTQVTVSS | high polyreactivity
32 | QVQLVESGGGLVQAGGSLRLSCAASGFTLYHYAMGWYRQAPGKERELVAAITTSGSRTYYADSVKGRFTISRDNAKNTVYLQMNSLKPEDTAVYYCNAVASSTEYDYWGQGTQVTVSS | high polyreactivity
33 | QVQLVESGGGLVQAGGSLRLSCAASGFTLYPYGMGWYRQAAGKERELVASISSRVGRTYYADSVKGRFTISRDNAKNTVYLQMNSLKPEDTAVYYCAASRLVRYQSRYASWGQGTQVTVSS | high polyreactivity
34 | QVQLVESGGGLVQAGGSLRLSCAASGFTLYSNTMGWYRQATGKERELVAAINYSGGSTYYADSVKGRFTISRDNAKNTVYLQMNSLKPEDTPVYYCATDLHWLVTKYGYWGQGTQVTVSS | low polyreactivity
35 | QVQLVESGGGLVQAGGSLRLSCAASGFTLYSYAMGWYRQAPGKERELVAAITRSGGITYYADSVKGRFTISRDNAKNTVYLQMNSLKPEDTAVYYCNAYRGGLSSEHYYWGQGTQVTVSS | high polyreactivity
36 | QVQLVESGGGLVQAGGSLRLSCAASGFTLYSYVMGWYRQAPGKERELVAAISRSGVSTHYADSVKGRFTISRDNAKNTVYLQMNSLKPEDTAVYYCNKVYYYVGTLDYWGQGTQVTVSS | high polyreactivity
37 | QVQLVESGGGLVQAGGSLRLSCAASGFTNAYYAMGWYRQAPGKEREFVASITSGGSTYYADSVKGRFTISRDNAKNTVYLQMNSLKPEDTAVYYCAARSPFYSYTPGYEYWGQGTQVTVSS | high polyreactivity
38 | QVQLVESGGGLVQAGGSLRLSCAASGFTRIYAMGWYRQAPGKEREMVAAISQRGGRTYYADSVKGRFTISRDNAKNTVSLQKNSLKQEDTAVYYCNSDLRSYNYPEYEYDYWGQGTQVTVSS | high polyreactivity
39 | QVQLVESGGGLVQAGGSLRLSCAASGFTSAPYAMGWYRQAPGKERELVAAISSGDTTSYADSVKGRFTISRDNAKNTVYLQMNSLKPEDTAVYYCAAVYFNVIESYKTAGYDYWGQGTQVTVSS | low polyreactivity
40 | QVQLVESGGGLVQAGGSLRLSCAASGFTSAPYAMGWYRQAPGKERELVAAITRTGGSTYYADSVKGRFTISRDNAKNTVYLQMNSLKPEDTAVYYCAVRLSGYQYHFRYGYWGQGTQVTVSS | high polyreactivity
41 | QVQLVESGGGLVQAGGSLRLSCAASGFTSFANAMGWYRQAPGKERELVASITNSGGSTHYADSVKGRFTISRDNAKNTVYLQMNSLKPEDTAVYYCAADYWIVYRIYGSKYLGKWYDYWGQGTQVTVSS | low polyreactivity
